The data set “native gel or EMSA” deals with the molecule itself. Put plainly: native gel or EMSA.
The target in data set [1] is T1, ACAD9 (mouse (endogenous in mouse heart)), Q8JZN5.
T1 chain: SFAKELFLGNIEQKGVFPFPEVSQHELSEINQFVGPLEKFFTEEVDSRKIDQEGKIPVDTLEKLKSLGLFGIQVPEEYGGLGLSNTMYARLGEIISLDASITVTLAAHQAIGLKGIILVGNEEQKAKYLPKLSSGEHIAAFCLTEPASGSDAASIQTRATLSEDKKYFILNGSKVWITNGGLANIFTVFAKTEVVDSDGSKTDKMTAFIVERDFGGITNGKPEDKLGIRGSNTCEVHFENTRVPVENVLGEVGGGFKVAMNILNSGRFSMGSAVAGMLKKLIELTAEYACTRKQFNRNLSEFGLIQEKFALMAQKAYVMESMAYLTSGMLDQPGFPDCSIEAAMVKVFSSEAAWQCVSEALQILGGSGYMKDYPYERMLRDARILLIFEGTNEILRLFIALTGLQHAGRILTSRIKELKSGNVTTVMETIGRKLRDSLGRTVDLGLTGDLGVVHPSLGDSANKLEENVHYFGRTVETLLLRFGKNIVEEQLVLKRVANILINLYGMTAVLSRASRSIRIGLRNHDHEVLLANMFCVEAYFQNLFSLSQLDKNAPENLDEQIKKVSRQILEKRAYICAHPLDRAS
Description: native gel or EMSA. The note with it: remark: other sources report otherwise.

The values below come from PMC6091870 (Cell reports, 2018).

For orientation: stoichiometry N means a count of units in the complex or per binding partner.

B1: oxoglutarate dehydrogenase (OGDH) (enzyme, mouse (endogenous in mouse heart), UniProt Q60597 41-1023, looked up)
chain: SAPVAAEPFLSGTSSNYVEEMYCAWLENPKSVHKSWDIFFRNTNAGAPPGTAYQSPLSLSRSSLATMAHAQSLVEAQPNVDKLVEDHLAVQSLIRAYQIRGHHVAQLDPLGILDADLDSSVPADIISSTDKLGFYGLHESDLDKVFHLPTTTFIGGQEPALPLREIIRRLEMAYCQHIGVEFMFINDLEQCQWIRQKFETPGIMQFTNEEKRTLLARLVRSTRFEEFLQRKWSSEKRFGLEGCEVLIPALKTIIDMSSANGVDYVIMGMPHRGRLNVLANVIRKELEQIFCQFDSKLEAADEGSGDMKYHLGMYHRRINRVTDRNITLSLVANPSHLEAADPVVMGKTKAEQFYCGDTEGKKVMSILLHGDAAFAGQGIVYETFHLSDLPSYTTHGTVHVVVNNQIGFTTDPRMARSSPYPTDVARVVNAPIFHVNSDDPEAVMYVCKVAAEWRNTFHKDVVVDLVCYRRNGHNEMDEPMFTQPLMYKQIRKQKPVLQKYAELLVSQGVVNQPEYEEEISKYDKICEEAFTRSKDEKILHIKHWLDSPWPGFFTLDGQPRSMTCPSTGLEEDVLFHIGKVASSVPVENFTIHGGLSRILKTRRELVTNRTVDWALAEYMAFGSLLKEGIHVRLSGQDVERGTFSHRHHVLHDQNVDKRTCIPMNHLWPNQAPYTVCNSSLSEYGVLGFELGFAMASPNALVLWEAQFGDFNNMAQCIIDQFICPGQAKWVRQNGIVLLLPHGMEGMGPEHSSARPERFLQMCNDDPDVLPDLQEENFDINQLYDCNWIVVNCSTPGNFFHVLRRQILLPFRKPLIVFTPKSLLRHPEARTSFDEMLPGTHFQRVIPENGPAAQDPHKVKRLLFCTGKVYYDLTRERKARNMEEEVAITRIEQLSPFPFDLLLKEAQKYPNAELAWCQEEHKNQGYYDYVKPRLRTTIDRAKPVWYAGRDPAAAPATGNKKTHLTELQRFLDTAFDLDAFKKFS
As to B1, the “stoichiometry N” value in “native gel or EMSA” stood at 2.

B2: ACAD9, Q8JZN5 42-625 (enzyme)
chain: T1 chain
For the molecule B2, the stoichiometry N in data set [1] was determined as 2.
